From the supplement of paper PMC10567573

B1: RSPH3 (parent)
chain: QRLEEQERRHREEKERRKKQQWEI

Variants of: B1
Assay: protein stability index of a GFP-peptide fusion (GPS, HEK-293T) (PSI 1-6); higher = more stable
Conditions: c terminus: a fixed tail appended
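Further: lentivirally expressed fusions sorted by FACS into six bins by GFP to DsRed ratio, PSI derived from sequencing read proportions per bin multiplied by bin number.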

Variant	protein stability index
QRLEEQERCHREEKERRKKQQWEI	4.84
QRLEEQERDHREEKERRKKQQWEI	4.97
QRLEEQERIHREEKERRKKQQWEI	4.4
QRLEEQERWHREEKERRKKQQWEI	4.47
QRLEEQERQHREEKERRKKQQWEI	4.63
QRLEEQERPHREEKERRKKQQWEI	4.92
QRLEEQERGHREEKERRKKQQWEI	4.85
QRLEEQERAHREEKERRKKQQWEI	5.32
QRLEEQERYHREEKERRKKQQWEI	4.66
QRLEEQERMHREEKERRKKQQWEI	5.37
QRLEEQERNHREEKERRKKQQWEI	4.56
QRLEEQERVHREEKERRKKQQWEI	4.85
QRLEEQERHHREEKERRKKQQWEI	5.33
QRLEEQERFHREEKERRKKQQWEI	4.98
QRLEEQEREHREEKERRKKQQWEI	4.49
QRLEEQERTHREEKERRKKQQWEI	4.51
QRLEEQERLHREEKERRKKQQWEI	4.81
QRLEEQERKHREEKERRKKQQWEI	4.21
QRLEEQERSHREEKERRKKQQWEI	3.85
QRLEEQFRRHREEKERRKKQQWEI	4.41
QRLEEQHRRHREEKERRKKQQWEI	4.28
QRLEEQGRRHREEKERRKKQQWEI	3.95
QRLEEQYRRHREEKERRKKQQWEI	3.81
QRLEEQCRRHREEKERRKKQQWEI	4.15

Variant	protein stability index
QRLEEQIRRHREEKERRKKQQWEI	3.86
QRLEEQARRHREEKERRKKQQWEI	4.36
QRLEEQTRRHREEKERRKKQQWEI	4.95
QRLEEQLRRHREEKERRKKQQWEI	4.55
QRLEEQPRRHREEKERRKKQQWEI	4.75
QRLEEQWRRHREEKERRKKQQWEI	4.25
QRLEEQNRRHREEKERRKKQQWEI	4.25
QRLEEQSRRHREEKERRKKQQWEI	3.88
QRLEEQDRRHREEKERRKKQQWEI	4.04
QRLEEQVRRHREEKERRKKQQWEI	4.57
QRLEEQQRRHREEKERRKKQQWEI	3.38
QRLEEQMRRHREEKERRKKQQWEI	3.38
QRLEEQKRRHREEKERRKKQQWEI	4.36
QRLEEQRRRHREEKERRKKQQWEI	4.26
QRLEEQERRSREEKERRKKQQWEI	4.53
QRLEEQERRPREEKERRKKQQWEI	4.44
QRLEEQERRGREEKERRKKQQWEI	4.51
QRLEEQERRFREEKERRKKQQWEI	4.48
QRLEEQERRKREEKERRKKQQWEI	4.84
QRLEEQERRVREEKERRKKQQWEI	4.45
QRLEEQERRAREEKERRKKQQWEI	4.94
QRLEEQERRTREEKERRKKQQWEI	4.79
QRLEEQERRMREEKERRKKQQWEI	4.43
QRLEEQERRRREEKERRKKQQWEI	3.69

Variant	protein stability index
QRLEEQERRWREEKERRKKQQWEI	4.49
QRLEEQERRNREEKERRKKQQWEI	5.08
QRLEEQERRLREEKERRKKQQWEI	4.87
QRLEEQERRIREEKERRKKQQWEI	4.5
QRLEEQERRDREEKERRKKQQWEI	4.38
QRLEEQERRQREEKERRKKQQWEI	5.04
QRLEEQERREREEKERRKKQQWEI	5.26
QRLEEQERRYREEKERRKKQQWEI	4.05
QRLEEQERRHRECKERRKKQQWEI	3.82
QRLEEQERRHREKKERRKKQQWEI	4.17
QRLEEQERRHREDKERRKKQQWEI	4.74
QRLEEQERRHRETKERRKKQQWEI	4.32
QRLEEQERRHRERKERRKKQQWEI	4.47
QRLEEQERRHRENKERRKKQQWEI	4.16
QRLEEQERRHREPKERRKKQQWEI	4.06
QRLEEQERRHREMKERRKKQQWEI	3.99
QRLEEQERRHREAKERRKKQQWEI	3.79
QRLEEQERRHREHKERRKKQQWEI	4.19
QRLEEQERRHREQKERRKKQQWEI	4.52
QRLEEQERRHRESKERRKKQQWEI	4.02
QRLEEQERRHREVKERRKKQQWEI	4.14
QRLEEQERRHREIKERRKKQQWEI	3.88
QRLEEQERRHREGKERRKKQQWEI	4.55
QRLEEQERRHREYKERRKKQQWEI	3.77

Variant	protein stability index
QRLEEQERRHREFKERRKKQQWEI	3.72
QRLEEQERRHREWKERRKKQQWEI	3.34
QRLEEQERRHRELKERRKKQQWEI	3.95
QRLEEQERRHRREKERRKKQQWEI	4.37
QRLEEQERRHRAEKERRKKQQWEI	4.84
QRLEEQERRHRYEKERRKKQQWEI	3.78
QRLEEQERRHRDEKERRKKQQWEI	5
QRLEEQERRHRKEKERRKKQQWEI	3.58
QRLEEQERRHRCEKERRKKQQWEI	4.32
QRLEEQERRHRQEKERRKKQQWEI	4.2
QRLEEQERRHRSEKERRKKQQWEI	3.99
QRLEEQERRHRNEKERRKKQQWEI	4.57
QRLEEQERRHRPEKERRKKQQWEI	4.07
QRLEEQERRHRVEKERRKKQQWEI	4.5
QRLEEQERRHRLEKERRKKQQWEI	4.42
QRLEEQERRHRGEKERRKKQQWEI	4.36
QRLEEQERRHRWEKERRKKQQWEI	2.58
QRLEEQERRHRHEKERRKKQQWEI	4.03
QRLEEQERRHRIEKERRKKQQWEI	3.64
QRLEEQERRHRTEKERRKKQQWEI	4.28
QRLEEQERRHREEKEIRKKQQWEI	5
QRLEEQERRHREEKEFRKKQQWEI	4.06
